Values of other authors as cited in patent US20150174267A1, “COMPOSITIONS AND METHODS FOR THE TRANSPORT OF THERAPEUTIC AGENTS” (Angiochem Inc., priority 2009, published 2015).
Where no end group is shown, it is not given here.

Experiments:
[1] = for efficient transport across the BBB: efficiently = at least as efficiently as Angiopep-6
[2] = tested on: liver, lung, kidney, spleen, and muscle cells

| Compound | efficient transport across the BBB [1] | also measured |
| --- | --- | --- |
| COc1cc([C@@H]2c3cc4c(cc3[C@@H](O[C@@H]3O[C@@H]5CO[C@@H](C)O[C@H]5[C@H](O)[C@H]3O)[C@H]3COC(=O)[C@H]23)OCO4)cc(OC)c1OP(=O)(O)O [Etoposide phosphate, etoposide phosphate] |  | water solubility compared to etoposide: improved water solubility |
| Angiopep-1: targeting polypeptide of Table 1, SEQ ID NO:67 (TFFYGGCRGKRNNFKTEEY; not fully specified (C-terminus)) | cross the mammalian BBB efficiently |  |
| Angiopep-2: targeting polypeptide of Table 1, SEQ ID NO:97 | cross the mammalian BBB efficiently |  |
| Angiopep-4a: targeting polypeptide of Table 1, SEQ ID NO:108 (RFFYGGSRGKRNNFKTEEY) | cross the mammalian BBB efficiently |  |
| Angiopep-4b: targeting polypeptide of Table 1, SEQ ID NO:109 (RFFYGGSRGKRNNFKTEEY; not fully specified (N-terminus)) | cross the mammalian BBB efficiently |  |
| Angiopep-5: targeting polypeptide of Table 1, SEQ ID NO:110 (RFFYGGSRGKRNNFRTEEY; not fully specified (N-terminus)) | cross the mammalian BBB efficiently |  |
| Angiopep-6: targeting polypeptide of Table 1, SEQ ID NO:111 (TFFYGGSRGKRNNFRTEEY) | cross the mammalian BBB efficiently | transport across the BBB relative to that of Angiopep-1 ([1]; relative to Angiopep-1 (250 nM), in situ brain perfusion assay of US 2009/0016959): 38.5% |
| Angiopep-7: targeting polypeptide of Table 1, SEQ ID NO:112 (TFFYGGSRGRRNNFRTEEY) | does not cross the BBB efficiently | efficient transport into particular cell types [2]: efficiently transported into liver, lung, kidney, spleen, and muscle cells |
